# ± gives the uncertainty stated by the source.
# Assay: amyloid nucleation score (Sup35N fusion, yeast selection) (log enrichment); library NNK3; higher = more nucleation; inactive = no reads after selection
# Outline: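 The nucleation score equals the log enrichment of output over input reads from DiMSum, centred on the mode score of non-aggregating sequences. It was computed only for sequences with 100 or more input reads. The reads came from Illumina sequencing of plasmid inserts from psi-negative yeast expressing Sup35N fused to peptides of 20 random codons, induced with 100 μM copper sulfate for 24 hours and grown 7 days at 30°C without adenine and uracil.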
row,Substance,amyloid nucleation score
1,QFLLGWNPNTSDLVLTFVQQ,1.15 ± 0.14
2,CWVRIVAICMGFW,inactive
3,LVVGVFKGSRSYVFK,inactive
4,NLINTVKYLNFDGLTAFSSQ,inactive
5,HCQSRRWTKFLYMGWLPSSS,1.55 ± 0.1
6,CLNYSETCSPI,inactive
7,KLYYIVRCEFCRDCKMAWGN,1.29 ± 0.094
8,TSKRDYDRCRFL,inactive
9,SYKGLCS,inactive
10,SPWAMGCECLVRGGLEKYAK,inactive
11,GSSIEPDWL,inactive
12,SGLVCVT,inactive
13,QHSLGG,inactive
14,LYGAWSNIPLYMFSFHFMYR,inactive
15,YFSSLNSNFWGVVRRRLLYN,inactive
16,YSTRPSYFLDLMLYIDTWVQ,inactive
17,LYDSIVHESKRLLATDRIRF,inactive
18,FSGSTSLCLMMRYTSTVR,0.359 ± 0.25
19,PSTDSINDV,inactive
20,VGTFWGFTIPSWYSVVVEVC,inactive
21,VFTFRWHVWRDWLMSEHCDK,-0.296 ± 0.55
22,HWSFQTVIDYGHPKFF,1.45 ± 0.15
23,IDLSAMFFAFFVIFVFVWIW,inactive

row,Substance,amyloid nucleation score
1,YKGYSVCIVLPFG,-0.542 ± 0.98
2,SCKELLPFWARELLRFNRYC,inactive
3,NTFVPVLVFGFYYVLIMISN,inactive
4,NNRLRGHF,inactive
5,MYPLTVWIVLRLGDSFLK,inactive
6,SDLGHWHIFRYLAAIASRRK,inactive
7,SSQLDHVRLSGYVLTLEGPF,inactive
8,VGYVWIDRYVWRYGLC,inactive
9,WDAPKCNSVNYLLKDHYHRC,inactive
10,MSLNNGGSGSCVCPFR,inactive
11,FLFVCLSLIALTGADSLVQA,inactive
12,HRSNCDYDIQYVYIFFS,2.36 ± 0.063
13,VDGSVNMRALKCINNCVL,inactive
14,FLWMSGSSGWLSTVVIGGSW,inactive
15,GFRMGLTHCHSALKEFRFCH,inactive
16,NGWRCLTVWDLSLYHWGYFL,inactive
17,ANVCGVL,inactive
18,INLFICMCEKGYPHDSWVCC,2.58 ± 0.083
19,TKYAHPPTQDDPLCGIRRSV,inactive
20,IISQAQFSVAYLLCWRQCYV,1.2 ± 0.082
21,FLRLSMKLHNLWYLLGSLWS,inactive
22,MYREFYLNDQFNRPFPQSMD,inactive
23,HLSWNSLTDRNVLC,inactive

row,Substance,amyloid nucleation score
1,DYIRHSFHCVLILSDKSHFS,inactive
2,YIIFNFIDFYKPGWGFQWTV,2.82 ± 0.052
3,ICGIDSLN,inactive
4,SVTPFPIIFN,inactive
5,TYYSLVF,inactive
6,WHCVSFKLNDL,inactive
7,MYQVDMMLCTITDWVGSNWY,0.666 ± 0.27
8,DFLLATDQVGYKDLDLGTKV,inactive
9,FILNRLTRIIWDF,inactive
10,KLKVVVIKNICFG,1.82 ± 0.083
11,HARFNVRNN,inactive
12,QTHSMGDSECYL,inactive
13,SRWNK,inactive
14,VVSMQYCLFS,2.81 ± 0.072
15,ILKMFTSGYCRVLWDLVVMV,inactive
16,PLLFSRVSLDL,inactive
17,TFSDRSFRQWVWQELSFCGS,inactive
18,DLNIIRISAYLCLANCFPST,2.37 ± 0.054
19,RKARRGCYVFLPKFSNVEFH,1.03 ± 0.12
20,SPPLYSYRGRYMERYHSKWN,inactive
21,ICWLVMEVLG,inactive
22,YEKYDTKVWNCG,inactive
23,ARQYAIRWMWSVVIDGGEKS,inactive

row,Substance,amyloid nucleation score
1,IIMRDYTAMCI,inactive
2,MYNSTLSWRL,inactive
3,SWLANRYMGDYIRQWVWDKL,-0.932 ± 1.8
4,SRWYFGLLLMNNTHTVNVPL,inactive
5,LYFSFIFNLSIQGDAEFVSN,2.49 ± 0.051
6,HSRAVLTLLW,inactive
7,KFLITETGSEL,inactive
8,YAALILGVVQCAGLILFYVI,inactive
9,LPIKMGMLLSICDLLG,inactive
10,VMCLRRMSFQCMQSQMEALA,inactive
11,HSKFWFCLFRIFQVSGLFNR,inactive
12,TMHQLHKFFLHMKGASIDSV,inactive
13,MLFANRHNLESGWSL,inactive
14,AVHFGLYFLMRVITMC,inactive
15,VTKVYGDVVLEWRHDVLFGG,0.503 ± 0.32
16,LIAMICSLGTYFLIVAFELI,inactive
17,NSSEGDDY,inactive
18,YFNGATS,inactive
19,VAADITSEA,inactive
20,LPRTYRKALVPNVVVFSYLT,inactive
21,TCACIWGVSVWCYRSQVFAQ,-0.455 ± 0.52
22,FGLYYRLPNNCNKTGNQFTV,inactive
23,LTVLDQSCSIYYCTSLHKS,1.92 ± 0.087

row,Substance,amyloid nucleation score
1,RDRWI,inactive
2,TRDRCLRFKLVPVYFVWTCG,inactive
3,LCSIVWRGIRDAYGQRYYVV,inactive
4,SNLDFMMGINSFRRVKAEPG,-0.251 ± 0.57
5,RNIELSAPLFWSAAASDVVK,inactive
6,KNFQPKTS,0.082 ± 0.45
7,HLRLYCHPMNFRWHRRYYEP,0.249 ± 0.4
8,GSSRRKKLTV,inactive
9,LSSYTVSFPKRMHRSEYFGY,-0.73 ± 0.9
10,SICCKVRTSTYVRLCMLVLP,inactive
11,LLMGSSSSV,inactive
12,SYCHRRLLSRVSLLVASSVK,inactive
13,CCIYQHIFYMRTYCIRT,inactive
14,GGQGIYMY,inactive
15,VRLVAMCWGHLDKNRALRRG,inactive
16,HYPIRERNAFLLNNDVDLLA,inactive
17,FLIKSFWNMIVCEAGDCCKD,1.75 ± 0.12
18,YLHVVTWLMNACPGQPRHWL,inactive
19,FVNSRVLWMIKIC,inactive
20,CCFPVVRKPFG,inactive
21,SIVDSVQQVSVRWAMYT,-0.433 ± 1.8
22,ITRWHGSLHSDYGIGICFSI,inactive
23,PRIWLVAFQTKTCYPSGGWL,-1.47 ± 1.9

row,Substance,amyloid nucleation score
1,KCEFN,inactive
2,YYALKYVNLQLNKRNVTRWV,inactive
3,KNYCGKNEYVLCTD,inactive
4,LKSGVFFG,inactive
5,DSSPVPKGYNRVRPLVNLAV,inactive
6,CTCFRGSTFRNAYN,inactive
7,DYTGT,-0.191 ± 0.74
8,WWNLWSPAATATRRCY,-0.462 ± 0.9
9,IPTSLCGGAQLGRTRVLFLW,inactive
10,DWVMADRMSPVKIMYATSSG,inactive
11,NLNKNRLLMTMHWNRVFLMS,inactive
12,ESIRCFSTYKNGSIRSFRAL,inactive
13,QSVSVGLCCWAMPVK,inactive
14,CHNVLWRLKRFHASRCTGDM,inactive
15,NDFLDVGSVSSYVNTQLPMS,-0.086 ± 0.8
16,KNTSIK,inactive
17,FDYWCKVMSHEYYVEEPNIY,inactive
18,YTIVLLYERFQLAPTTMWMC,inactive
19,YGKFMLLPVAGGIFVFENML,1.25 ± 0.14
20,LVNDKMLCNYHAMMRLFFFM,inactive
21,EGSNI,1.05 ± 0.17
22,KCGFLTSPHMFSLK,inactive
23,HLKSVGVVYDWMSQWSLWCR,inactive

row,Substance,amyloid nucleation score
1,TFWMPD,-0.55 ± 1.3
2,SSFNFTSIVLHIANLLHFFL,inactive
3,ALDMVLYL,inactive
4,SIFKVISERQSV,inactive
5,TGCGQFH,inactive
6,TRPLSDPVLINVYWRETSYP,-0.33 ± 0.47
7,FQFWGAGGDI,inactive
8,YMYQLKYYASEMNWVYSYSI,inactive
9,LNPPNKYDLDVFWVMVSYKK,inactive
10,LCTKGYWFKAPNYLLSKLCF,inactive
11,VTQSNGVHKGAR,inactive
12,TWDWGCKVGFRKGKKV,inactive
13,RSTFRRLLRCFGFWRRWSCI,inactive
14,AVIFFYRVISFLRWSFTLPV,inactive
15,ARLSEAVLGNVSDIGRVCNL,inactive
16,RVCSALCIRVLALFGCCSVE,1.05 ± 0.19
17,LLLRLLTMMVFNCILVDYGL,inactive
18,FSIQSRCAVGWLSIGSVTAR,inactive
19,YVDPRGVTVSWMSIYSRRAL,inactive
20,LRRSVSIGDPGASLIKTSFA,inactive
21,SKECILVLAFDGCSGSSRWY,inactive
22,VFSDGLFVMTAAVYQYT,inactive

# Source: the supplement of paper PMC12042874
